The values that follow come from patent US20180292412A1 (JULIUS MAXIMILIANS UNIVERSIT T W RZBURG, published 2018).

Assay [1] deals with T1, recombinant mature human GDF-15 protein (as expressed in Baculovirus-transfected HighFive insect cells) (human, UniProt Q99988 197-308).
T1 construct: Immobilised by amine coupling on the SPR chip; also called recombinant human GDF-15; GDF-15 derived from insect cell expression
T1 sequence: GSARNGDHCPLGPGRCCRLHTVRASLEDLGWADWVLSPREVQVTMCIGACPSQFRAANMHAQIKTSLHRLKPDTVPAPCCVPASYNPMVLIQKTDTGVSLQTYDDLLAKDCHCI
Briefly: SPR (Biorad ProteOn XPR36), calculated as koff/kon. The source says:
(§1) For preparing the biosensors recombinant mature human GDF-15 protein was immobilized on flow cells 1 and 2. On one flow cell recombinant GDF-15 derived from Baculvirus-transfected insect cells (HighFive insect cells) and on the other recombinant protein derived from expression in E. coli was used. The GLC sensor chip was activated using Sulfo-NHS (N-Hydroxysulfosuccinimide) and EDC (1-Ethyl-3-[3-dimethylaminopropyl]carbodiimide hydrochloride) (Biorad ProteOn Amine Coupling Kit) according to the manufacturer's recommendation, the sensor surface was subsequently loaded with the proteins up to a density of about 600 RU (1 Ru=1 pg mm⁻²). The non-reacted coupling groups were then quenched by perfusion with 1M ethanolamine pH 8.5 and the biosensor was equilibrated by perfusing the chip with running buffer ([…], 150 mM NaCl, 3.4 mM EDTA, 0.005% Tween-20, pH 7.4, referred to as HBS150). […] The resulting sensogram was analyzed using the software ProteOn Manager version 3.0. […] For the association rate constant a value of 5.4±0.06×10⁵ M⁻¹s⁻¹ (kₒₙ) and for the dissociation rate constant a value of 4.3±0.03×10⁻⁴ s⁻¹ (koff) could be determined (values are for the interaction of anti-human GDF-15 mAb-B1-23 with GDF-15 derived from insect cell expression).

Assay [2] concerns the target T2, recombinant mature human GDF-15 protein derived from expression in E. coli (human, UniProt Q99988 195-308).
T2 construct: mature; also called GDF-15 derived from E. coli expression
T2 sequence (looked up): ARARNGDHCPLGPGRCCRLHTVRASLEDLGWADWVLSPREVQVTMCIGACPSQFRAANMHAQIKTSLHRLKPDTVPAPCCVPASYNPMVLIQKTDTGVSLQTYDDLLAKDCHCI
Briefly: SPR (Biorad ProteOn XPR36), GDF-15 from E. coli immobilised, antibody as analyte.
Description: as §1, with “The” for “For preparing the biosensors recombinant mature human GDF-15 protein was immobilized on flow cells 1 and 2. On one flow cell recombinant GDF-15 derived from Baculvirus-transfected insect cells (HighFive insect cells) and on the other recombinant protein derived from expression in E. coli was used. The”, “HBS150). As controls two flow cells were used, one empty with no protein coupled and one coupled with an non-physiological protein partner (human Interleukin-5), which was immobilized using the same coupling chemistry and the same coupling density. For interaction measurements anti-human GDF-15 mAb-B1-23 was dissolved in HBS150 and used in six different concentrations as analyte (concentration: 0.4, 0.8, 3, 12, 49 und 98 nM).” for “HBS150).”

For assay [3], the target named is T1, recombinant mature human GDF-15 protein …. The assay can be described thus: SPR (Biorad ProteOn XPR36, GLC chip), GDF-15 from insect cells immobilised, antibody as analyte, 25° C., 1:1 Langmuir model.
Description: as §1

B1: monoclonal anti-human GDF-15 mAb-B1-23 (antibody, IgG2a, V domains shown, not shown: a dimerising Fc or GST)
VH: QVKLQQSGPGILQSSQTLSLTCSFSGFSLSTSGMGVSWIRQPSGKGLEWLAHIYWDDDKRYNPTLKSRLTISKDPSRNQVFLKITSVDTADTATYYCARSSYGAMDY
VL: DIVLTQSPKFMSTSVGDRVSVTCKASQNVGTNVAWFLQKPGQSPKALIYSASYRYSGVPDRFTGSGSGTDFTLTISNVQSEDLAEYFCQQYNNFPYT
notes: Mouse hybridoma antibody (DSM ACC3142), IgG2a, kappa chain; FR4 and the constant regions are missing; also called antibody B1-23; monoclonal mouse antibody GDF-15
B1: the Kd in assay [1] is about 0.79 nM. Further, the “fold difference of affinity against GDF-15 derived from insect cells” value in assay [2] was under 2 fold. Moreover, in assay [3], the koff was found to be 0.00043 s⁻¹ and the kon worked out at 540000 M⁻¹ s⁻¹.
